Reference: the RNAGym collection of RNA variant scans (doi:10.1073/pnas.2313332121)

B1: TPR t1 (parent)
chain: GACCAAUCUGCCCUCAGAGCUCGAGAACAUCUUCGGAUGCAGAGGAGGCAGGCUUCGGUGGCGCGAUAGCGCCAACGUCCUCAACCUCCAAUGCAUCCCACCACAUGAUGAUGCCUGAAGAGCCUUGGUUUUUUG

Variants of: B1
Assay: polymerase ribozyme fitness, log enrichment relative to wild type (log ratio); higher = more active; in vitro selection for triplet polymerase activity
Outline: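 Both subunits of a heterodimeric triplet polymerase ribozyme were given their own mutant library, built by PCR and transcribed. Each library was annealed with a biotinylated primer, the partner subunit and triplets, incubated frozen at −7 °C, and its extended constructs gel-excised, captured on streptavidin beads and amplified by RT-PCR, all in one round done in triplicate. Fitness is the logarithm of genotype enrichment relative to wild-type enrichment, with replicates averaged by inverse-variance weighting. That logarithm is base 2, and Illumina-sequenced genotypes needed ≥10 input reads and ≥1 read per output.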

Point of comparison: C11G G107C, “polymerase ribozyme fitness (log ratio)” value -4.6. Against it:
- C11U A16C G93C — within 0.2 log units, -4.45
- C11U U38G G57U G69C A74G G110A — lower, -7.09
- C11U A41G C56G C124A — higher, 1.04
- C11U C20A G42C C102U U112C C124G — lower, -5.12
- C11U A84G C89U G93U — higher, -2.61
- C12A A18U C56U C79U C115U A118C U131C — higher, -3.23
- C11U A26U G52C — higher, -3.53
- C11U C15U A16C G42A — higher, -2.92
- C11U G61A C88G C94G U130C — within 0.2 log units, -4.74
- C11U G42A — higher, -2.48
- C11U C80U G113C — higher, -3.93
- C11U C28G A37G G120U U130A — higher, -2.33
- C12A A74C G93A C124U U132A — higher, -1.34
- C11G U32G U125A U126G — lower, -6.54
- C11U C34G C53A G71A — lower, -6.35
- C11U G39C — higher, -1.05
- C11G U109G — within 0.2 log units, -4.69
- C11U G51U — higher, -3.04
- C11U C12A U96C — higher, -2.18
- C11U A26U C49G — higher, -3.4
- C11G U130A — higher, 0.0419
- C11U C72A U78A C97A — lower, -5.56
- C11U C12U C15U C53A C80U C88U C104U A111U A118G — lower, -6.72
- C11U C99U — higher, -3.13
- C11U A27U G120A U132A — higher, -1.47
- C11U G47A U87A G93U G113C — within 0.2 log units, -4.49
- C11U C20U G63A U87C — higher, -1.21
- C11U C28U C82U G120U — higher, -2.14
- C11U G120U G122U — higher, 1.38
- C11U G58C G120U — higher, 0.332
- C11U C15G G51U A119G U133A — higher, -2.44
- C11U G48A U59A G69U C88G G135U — higher, -3.32
- C11U A50G — higher, -0.405
- C11U C56A A91U U96C — higher, -3.51
- C11U A24G G47U G77U U116C — lower, -7.91
- C11G G113A U133A — higher, -1.34
- C12A A27U G63A — lower, -5.2
- C11U G42A U96A — higher, -3.35
- C11U C94A — higher, -2.35
- C12A A37C A50G C53A — higher, -0.87
- C11U C13U A50C A103C U125A — lower, -5.37
- C11U C40U G60U G77C A111U — higher, -4.37
- C11U C13U A18G C56U U109A — within 0.2 log units, -4.43
- C11U A50U C70U G113A — higher, -2.63
- C11U A43U — higher, -1.62
- C11U C70U C101A G128C — higher, -4.09
- C11U C49A G107U G120A — within 0.2 log units, -4.45
- C11U C15A A16C U33G C49G G60A G65A C79A A90C U109A — lower, -8.01
- C11U G48A G61A C86G — higher, -1.75
- C11U C13U G44C C86G U116C U132C — higher, -1.99
- C11U C56G C88U G120C G122U G127A — higher, -0.748
- C11U U55C A121G — higher, 1.39
- C11U C64U U78C — higher, -0.654
- C11U C53U A84G — higher, -1.32
- C11U G127U — higher, -2
- C11U C49A — higher, -1.28
- C11U C15A C101G — higher, -3.87
- C12A A46U G47C A68G U78C C124G — lower, -4.93
- C11U G69U A121G — higher, 2.01
- C11G U38A G45U A50C — higher, -2.51
- C11U C12A A41C C56G G69U — higher, -2.94
- C11U A37C G45U G58A — higher, -2.72
- C11U G44C G61U C104U U116C — higher, -2.32
- C11U C12G C15U C28G U38A C56U G69C G120A — lower, -7.02
- C12A A18U C76G G77U U96A — higher, -4.3
- C11U U109G — lower, -5.84
- C11U A18U G69U — higher, -0.642
- C11G U32A C34U C115G — lower, -8.31
- C11U C20G U96G C123U — higher, -2.94
- C11U A118U — higher, -0.464
- C11U U32A A68C G69U C98A C99A U106A C115G G117C U132A — lower, -6.55
- C11U A105C A118G — higher, -2.52
- C11U G120A — higher, 0.0588
- C11U G120U — higher, -0.185
- C11U G120C — higher, 1.11
- C11U A27U G71U C101G C104U A111C — lower, -6.17
- C11U A100C — higher, -1.31
- C11G G110U U125A — higher, -0.479
- C11U U106A G110C C123U — higher, -2.46
- C11G U33G A95G C101U G120C — lower, -5.25
- C11G U21G G93A — higher, -2.28
- C11U G61U C76U A111C — lower, -5.8
